# Residue numbers refer to the chain shown, from its start. Numbers in names are those of the source.
# T1: Sec9c (amino acids 401-651 of Sec9), wild type (yeast, UniProt P40357 401-651)
# T1 sequence (looked up): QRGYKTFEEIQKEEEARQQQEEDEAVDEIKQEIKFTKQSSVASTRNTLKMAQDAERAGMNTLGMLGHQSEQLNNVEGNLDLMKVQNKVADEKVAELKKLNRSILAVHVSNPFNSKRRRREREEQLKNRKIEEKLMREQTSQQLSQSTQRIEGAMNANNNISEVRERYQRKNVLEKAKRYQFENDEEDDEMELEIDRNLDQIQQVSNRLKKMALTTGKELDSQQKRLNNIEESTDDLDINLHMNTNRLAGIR
# T2: Sso1pHT (amino acids 185-290 of Sso1p lacking the regulatory Habc domain), wild type (yeast, UniProt P32867 185-290)
# T2 sequence (looked up): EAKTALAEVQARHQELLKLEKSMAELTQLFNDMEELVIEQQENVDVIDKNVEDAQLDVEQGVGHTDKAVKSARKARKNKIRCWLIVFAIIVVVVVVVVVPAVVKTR
# T3: Snc2pS (soluble Snc2p, amino acids 1-93), wild type (yeast, UniProt P33328 1-93)
# T3 sequence (looked up): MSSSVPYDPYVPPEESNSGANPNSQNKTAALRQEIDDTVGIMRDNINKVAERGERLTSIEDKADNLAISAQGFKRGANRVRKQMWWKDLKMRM
# B1: Sso1pHT E185C labeled with Cy3 (domain or fragment, yeast, UniProt P32867 185-290, looked up)
# chain: T2 sequence (looked up) with E1C
# modifications: Cy3 maleimide on cysteine 185
# B2: full-length Snc2p (amino acids 1-115) P13C labeled with Cy5 (natural protein, yeast, UniProt P33328 1-115, looked up)
# chain: MSSSVPYDPYVPCEESNSGANPNSQNKTAALRQEIDDTVGIMRDNINKVAERGERLTSIEDKADNLAISAQGFKRGANRVRKQMWWKDLKMRMCLFLVVIILLVVIIVPIVVHFS
# modifications: Cy5 maleimide on cysteine 13
# B3: Sec9c D599C, spin labeled with MTSSL (SN2) (domain or fragment, yeast, UniProt P40357 401-651, looked up)
# chain: T1 sequence (looked up) with D199C
# modifications: MTSSL nitroxide spin label on cysteine 599
# B4: Sec9c H641C, spin labeled with MTSSL (SN2) (domain or fragment, yeast, UniProt P40357 401-651, looked up)
# chain: T1 sequence (looked up) with H241C
# modifications: MTSSL nitroxide spin label on cysteine 641
# B5: Sec9c N606C, spin labeled with MTSSL (SN2) (domain or fragment, yeast, UniProt P40357 401-651, looked up)
# chain: T1 sequence (looked up) with N206C
# modifications: MTSSL nitroxide spin label on cysteine 606
# B6: Sec9c N627C, spin labeled with MTSSL (SN2) (domain or fragment, yeast, UniProt P40357 401-651, looked up)
# chain: T1 sequence (looked up) with N227C
# modifications: MTSSL nitroxide spin label on cysteine 627
# B7: Sec9c D620C, spin labeled with MTSSL (SN2) (domain or fragment, yeast, UniProt P40357 401-651, looked up)
# chain: T1 sequence (looked up) with D220C
# modifications: MTSSL nitroxide spin label on cysteine 620
# Target: T1, Sec9c (amino acids 401-651 of Sec9), …
# Test: FRET or BRET
row,Binder,binding result
1,B1,binds
2,B2,binds

# Target: T2, Sso1pHT (amino acids 185-290 of Sso1p …)
# Test: EPR line shape
row,Binder,percent of SN2 in an unstructured conformation (not in the complex) [%]
1,B3,~60
2,B4,~60
3,B5,~60
4,B6,~60
5,B7,~60

# Target: T3, Snc2pS (soluble Snc2p, amino acids …)
# Test: EPR line shape
row,Binder,percent of SN2 in an unstructured conformation (not in the complex) [%]
1,B3,~60
2,B4,~60
3,B5,~60
4,B6,~60
5,B7,~60

# Source: article PMC3733360 (Structure (London, England : 1993), 2008)
